In patent US20020122799A1 (published 2002):

Assays:
[1] = biological target: T1, wild-type human RAGE (Receptor for Advanced Glycation Endproducts) (human, UniProt Q15109 23-404); assay: binding to endothelial cells in culture wells
T1 construct: whole, on cells; also called Receptor for AGE; wild-type RAGE (Gly82)

[2] = biological target: T1, wild-type human RAGE (Receptor for …); assay: radioligand binding to stably transfected CHO cells expressing wild-type human RAGE, Klotz-Hunston fit
Method: (§1) FIG. 11A. Immunoblotting. Lysates of stably-transfected CHO cells were prepared and subjected to immunoblotting using anti-human RAGE IgG (2 μg/ml). FIGS. 11B-C. Radioligand binding assays. Purified EN-RAGE was radiolabelled using ¹²⁵-I and radioligand binding assays were performed in 96-well tissue culture dishes containing the indicated transfected CHO cells. Assays were performed in the presence of the indicated concentration of radiolabelled EN-RAGE±an 50-fold molar excess of unlabeled EN-RAGE. Elution of bound material was performed in a solution containing heparin. Equilibrium binding data were analyzed according to the equation of Klotz and Hunston. Where indicated, pretreatment with either antibodies (70 μg/ml), human soluble RAGE or bovine serum albumin (50-fold molar excess) was performed. The mean±standard deviation (SD) is shown. In FIG. 11C, * indicates p<0.01 versus respective controls. FIG. 11D. Activation of p44/p42 MAP kinases. The indicated stably-transfected CHO cells were incubated with EN-RAGE, 10 μg/ml, for one hr. Cell lysates were subjected to SDS-PAGE and transfer of the gels' contents to nitrocellulose. Immunblotting was performed using anti-phosphorylated p44/p42 MAP kinase (1 μg/ml). […] In FIGS. 11D-11E, bands were scanned into a densitometer, and band density was quantified using ImageQuant. […]

mutant human RAGE (82S) [3] = biological target: T2, mutant human RAGE (82S) (human, UniProt Q15109 23-404); assay: radioligand binding to stably transfected CHO cells expressing human RAGE (82S), Klotz-Hunston fit
T2 construct: whole, on cells; Position 82 counts on the precursor with leader; also called RAGE (G82S); RAGE (S82S)
Method: as §1

[4] = biological target: T1, wild-type human RAGE (Receptor for …); assay: cell-based or functional assay
mutant human RAGE (82S) [5] = biological target: T2, mutant human RAGE (82S); assay: cell-based or functional assay
macrophage (MP) RAGE = biological target: T3, macrophage (MP) RAGE; assay: binding to macrophages in culture wells
T3 construct: whole, on cells; also called RAGE on macrophages

immobilized RAGE = immobilized RAGE (Homo sapiens (Human), UniProt Q15109 23-342); assay: binding to RAGE immobilized in culture wells
immobilized RAGE, sequence (Q15109 23-342 limits assumed, form in doubt): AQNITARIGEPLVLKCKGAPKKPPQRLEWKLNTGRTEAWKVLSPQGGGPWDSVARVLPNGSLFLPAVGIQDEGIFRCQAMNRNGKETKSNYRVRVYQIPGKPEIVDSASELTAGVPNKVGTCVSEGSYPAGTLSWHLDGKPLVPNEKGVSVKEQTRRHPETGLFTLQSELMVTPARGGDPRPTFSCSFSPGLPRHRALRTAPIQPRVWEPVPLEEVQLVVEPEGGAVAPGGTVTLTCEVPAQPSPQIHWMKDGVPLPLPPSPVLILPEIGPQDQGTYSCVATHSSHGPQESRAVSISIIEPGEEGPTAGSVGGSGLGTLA

T2 sequence (Q15109 other isoform, or with tags, fused parts or gaps mutant): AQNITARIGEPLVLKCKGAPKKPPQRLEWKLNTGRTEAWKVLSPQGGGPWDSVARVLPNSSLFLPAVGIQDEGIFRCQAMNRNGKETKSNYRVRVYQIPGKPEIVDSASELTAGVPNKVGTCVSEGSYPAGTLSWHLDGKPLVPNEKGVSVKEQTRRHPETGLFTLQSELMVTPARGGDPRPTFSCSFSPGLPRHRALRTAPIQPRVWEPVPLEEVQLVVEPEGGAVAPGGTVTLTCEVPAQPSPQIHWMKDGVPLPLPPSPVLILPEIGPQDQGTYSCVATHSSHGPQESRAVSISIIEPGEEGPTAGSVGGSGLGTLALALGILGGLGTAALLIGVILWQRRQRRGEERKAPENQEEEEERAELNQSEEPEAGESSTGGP
T1 sequence (Q15109 23-404): as the sequence (Q15109 other isoform, or with tags, fused parts or gaps mutant) above, with S60G counted along it

Kd [1]: ~75 nM
Kd [2]: ~122 nM
Kd (mutant human RAGE (82S) [3]): ~77 nM
MMP-9 activity (zymography) of human MPs [4]: ~2.3 fold
NF-kB nuclear binding activity (EMSA) in CHO transfectants [4]: ~5.4 fold
activation of p44/p42 MAP kinases in human MPs [4]: ~2.2 fold
adhesion of Molt-4 cells to cultured ECs [4]: 7 fold
expression of cell-surface VCAM-1 on cultured ECs [4]: 4.3 fold
generation of IL-6 by human MPs [4]: ~1.5 fold
generation of TNF-alpha by human MPs [4]: ~4 fold
phosphorylated p44/42 MAP kinases in CHO transfectants [4]: ~2 fold
IL-6, mutant RAGE against wild-type MPs (mutant human RAGE (82S) [5]): ~7.3 fold
MMP-9 activity (zymography) of human MPs (mutant human RAGE (82S) [5]): ~4.7 fold
MMP-9 activity, mutant RAGE allele against wild-type receptor MPs (mutant human RAGE (82S) [5]): ~2 fold
NF-kB gel shift band (EMSA) in CHO transfectants (mutant human RAGE (82S) [5]): ~11.3 fold
NF-κB activation, mutant against wild-type receptor (mutant human RAGE (82S) [5]): ~2.1 fold
TNF-alpha, RAGE (G82S)/(S82S) against wild-type RAGE MPs (mutant human RAGE (82S) [5]): ~4.5 fold
elaborated TNF-alpha by human MPs (mutant human RAGE (82S) [5]): ~17.8 fold
generation of IL-6 by human MPs (mutant human RAGE (82S) [5]): ~10.9 fold
phosphorylated p44/42 MAP kinases in CHO transfectants (mutant human RAGE (82S) [5]): ~3.9 fold
phosphorylated p44 and p42 MAP kinases in human MPs (mutant human RAGE (82S) [5]): ~4.8 fold
Kd (macrophage (MP) RAGE): ~75 nM
Kd (immobilized RAGE): ~75 nM
B1: EN-RAGE (Extracellular Novel RAGE binding protein) (ligand, bovine, UniProt P79105 2-92, looked up)
chain: TKLEDHLEGIINIFHQYSVRVGHFDTLNKRELKQLITKELPKTLQNTKDQPTIDKIFQDLDADKDGAVSFEEFVVLVSRVLKTAHIDIHKE
modifications: radiolabelled with 125-I (Iodobeads) in the radioligand binding assays
notes: mature; also called S100A12
